The experiment deals with MurAA-His6 (wild-type), UDP-N-acetylglucosamine 1-carboxyvinyl transferase of Enterococcus faecalis (Enterococcus faecalis). Kind of experiment: thermal shift assay.
Chain of MurAA-His6 (wild-type), UDP-N-acetylglucosamine 1-carboxyvinyl transferase of Enterococcus faecalis (Enterococcus faecalis) (Q831A8 whole entry): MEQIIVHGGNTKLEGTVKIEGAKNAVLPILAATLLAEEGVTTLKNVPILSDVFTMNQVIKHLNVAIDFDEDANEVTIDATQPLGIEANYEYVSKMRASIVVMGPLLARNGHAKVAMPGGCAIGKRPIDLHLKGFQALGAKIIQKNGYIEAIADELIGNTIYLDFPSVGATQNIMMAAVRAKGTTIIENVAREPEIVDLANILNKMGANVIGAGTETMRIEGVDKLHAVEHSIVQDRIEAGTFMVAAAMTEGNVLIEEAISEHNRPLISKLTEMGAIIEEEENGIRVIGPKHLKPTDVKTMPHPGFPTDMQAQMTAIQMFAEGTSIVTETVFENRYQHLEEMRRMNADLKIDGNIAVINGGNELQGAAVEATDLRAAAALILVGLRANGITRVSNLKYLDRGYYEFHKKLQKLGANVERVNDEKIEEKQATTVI

B1: IreB (unphosphorylated), substrate of the PASTA kinase IreK of Enterococcus faecalis (natural protein)
chain: MGFTDETVRFDFDDNRKKAISETLETVYRALEEKGYNPINQIVGYLLSGDPAYIPRYQDARNLIRRHERDEIMEELTKYYLANHGIDIK
Take B1: the additional shift of the MurAA Tm with IreB turned out to be 16.5 °C.

For the origin of these results see article PMC10872757.
